Data: patent US20070111265A1 (published 2007)

B1: PGC1α-(1+2), human PGC1α fragment (residues 1-220) containing both LXXLL motifs, 6xHis-GST fusion protein (other)
chain: MAWDMCNQDSESVWSDIECAALVGEDQPLCPDLPELDLSELDVNDLDTDSFLGGLKWCSDQSEIISNQYNNEPSNIFEKIDEENEANLLAVLTETLDSLPVDEDGLPSFDALTDGDVTTDNEASPSSMPDGTPPPQEAEEPSLLKKLLLAPANTQLSYNECSGLSTQNHANHNHRIRTNPAIVKTENSWSNKAKSICQQQKPQRRPCSELLKYLTTNDDP

How the values were obtained:
[1] = molecular target: T1, human MR LBD (residues 727-984) containing a C808S mutation, 6xHis-GST fusion protein (;human, UniProt P08235 727-984); experiment: AlphaScreen peptide competition; corticosterone
T1 chain: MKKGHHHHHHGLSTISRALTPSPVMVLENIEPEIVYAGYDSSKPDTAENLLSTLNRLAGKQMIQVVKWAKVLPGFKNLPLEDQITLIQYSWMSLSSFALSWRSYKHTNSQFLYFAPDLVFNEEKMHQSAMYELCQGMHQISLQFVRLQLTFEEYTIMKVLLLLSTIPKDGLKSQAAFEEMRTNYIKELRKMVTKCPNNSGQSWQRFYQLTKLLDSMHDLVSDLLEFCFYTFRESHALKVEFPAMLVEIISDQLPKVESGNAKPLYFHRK

[2] = molecular target: T1, human MR LBD (residues 727-984) …; experiment: AlphaScreen competition; corticosterone

Binder	IC50 [1]	IC50 [2]
RRPCSELLKYLTTND [unlabeled PGC1α-2 peptide]	1100 nM	–
AEEPSLLKKLLLAPA [unlabeled PGC1α-1 peptide]	900 nM	–
B1	–	40 nM
